Data published in patent US20160061839A1 (LABORATORY CORPORATION OF AMERICA, published 2016).

Key:
Her-3 = biological target: T1, Her-3 (human, UniProt P21860 20-1342); assay: IHC on FFPE 293H3-clone 1 cells over-expressing HER3
T1 construct: whole, on cells; In the IHC and VERATAG assays the protein stood in formalin-fixed, paraffin-embedded cells or tumor sections; also called ErbB3; c-erb-B3

Her-2 = biological target: T2, Her-2 (human, UniProt P04626 23-1255); assay: IHC on FFPE SKOV3 cells (high HER2, low HER3)
T2 construct: whole, on cells; also called ErbB2; c-Erb-B2

T1 sequence (P21860 20-1342): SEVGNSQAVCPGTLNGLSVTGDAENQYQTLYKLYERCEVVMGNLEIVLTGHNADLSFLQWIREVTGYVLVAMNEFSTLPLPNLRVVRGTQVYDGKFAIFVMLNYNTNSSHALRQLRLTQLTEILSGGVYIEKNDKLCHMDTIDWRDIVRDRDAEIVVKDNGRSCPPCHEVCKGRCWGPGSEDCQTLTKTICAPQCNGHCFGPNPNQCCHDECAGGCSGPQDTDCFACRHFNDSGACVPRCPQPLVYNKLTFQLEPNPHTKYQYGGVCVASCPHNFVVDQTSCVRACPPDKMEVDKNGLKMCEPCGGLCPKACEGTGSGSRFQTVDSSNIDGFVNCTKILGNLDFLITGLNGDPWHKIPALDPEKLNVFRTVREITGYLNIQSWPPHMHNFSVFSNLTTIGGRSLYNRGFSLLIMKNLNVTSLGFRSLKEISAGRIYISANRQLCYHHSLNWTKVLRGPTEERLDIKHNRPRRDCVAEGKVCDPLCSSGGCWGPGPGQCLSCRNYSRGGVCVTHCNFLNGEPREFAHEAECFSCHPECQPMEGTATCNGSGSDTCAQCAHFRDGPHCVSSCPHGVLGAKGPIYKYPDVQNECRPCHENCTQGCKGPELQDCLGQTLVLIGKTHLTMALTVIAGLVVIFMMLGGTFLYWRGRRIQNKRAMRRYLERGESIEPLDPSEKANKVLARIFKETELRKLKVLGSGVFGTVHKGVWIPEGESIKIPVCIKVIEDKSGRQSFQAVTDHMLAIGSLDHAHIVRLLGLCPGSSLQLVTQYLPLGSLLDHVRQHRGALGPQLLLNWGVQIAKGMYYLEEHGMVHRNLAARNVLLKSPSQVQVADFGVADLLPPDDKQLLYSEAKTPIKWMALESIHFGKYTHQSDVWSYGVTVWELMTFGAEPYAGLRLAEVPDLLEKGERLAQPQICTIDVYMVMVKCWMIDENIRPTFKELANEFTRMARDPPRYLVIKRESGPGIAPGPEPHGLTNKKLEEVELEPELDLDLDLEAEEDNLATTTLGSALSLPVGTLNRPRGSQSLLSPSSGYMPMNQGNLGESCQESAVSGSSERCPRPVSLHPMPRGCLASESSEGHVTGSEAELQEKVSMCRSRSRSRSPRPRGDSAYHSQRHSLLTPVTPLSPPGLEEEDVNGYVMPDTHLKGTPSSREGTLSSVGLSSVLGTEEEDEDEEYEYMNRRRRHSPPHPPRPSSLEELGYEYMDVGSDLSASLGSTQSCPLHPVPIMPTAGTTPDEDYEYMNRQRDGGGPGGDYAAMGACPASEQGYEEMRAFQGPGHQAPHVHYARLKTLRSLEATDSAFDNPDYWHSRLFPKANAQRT

- binding result (Her-3): binds
- binding result (Her-2): no binding
B1: Her3.B9A11.H1 (antibody, V domains shown)
VH: EVQLQQPGTVLARPGASVRMSCKASGYTFTSYWMHWVKQRPGQGLEWIGAIYPGNSDTRDNQKFKGKAELTAVTSASTAYMELSSLTNEDSAVYYCTSYYFDGAGYFDFWGQGTTLTVSS
VL: DIVMSQSPSSLAVSAGEKVTLSCKSSQSLLNSRTRKNYLAWYQQKPGQSPKLLIYWASTRESGVPDRFTGSGSGTDFTLTVSSVQAEDLAVYYCKQSYNLWTFGGGTKLEIK
notes: Mouse hybridoma monoclonal antibody; The matched isotype control is IgG1; also called B9A11-biotin
